Experimental data as given in patent US20040063912A1.
Blank lines part the entries; values can stand above or below the substance they belong to.

How the values were obtained:
[1] = target: purified, soluble huFcRn (human) (UniProt P55899); assay: Biacore (SPR), purified soluble huFcRn
FcRn = assay: assay not stated; compared with EPO-Fc with native Fc
EPO receptor (EpoR) = assay: in vitro binding to EpoR; method not stated

Kd [1]: 8 nM
Substance: IgG1 (antibody)

reduction in FcRn binding (FcRn): > 90%
Substance: mutated EPO-Fc (Fc modified in three critical amino acid residues in the Fc domain: I253A, H310A, and H435A) (Fc fusion)

Kd (EPO receptor (EpoR)): 0.2 nM
Substance: native huEPO (from UniProt P01588 28-193) (ligand)
